Experiments:
Experiment in all cases: direct ELISA on coated protein, IgG1
hEpCAM-Fc = biological target: T1, hEpCAM-Fc (human, UniProt P16422)
T1 construct: Fc fusion; member of the panel m9
T1 sequence (looked up): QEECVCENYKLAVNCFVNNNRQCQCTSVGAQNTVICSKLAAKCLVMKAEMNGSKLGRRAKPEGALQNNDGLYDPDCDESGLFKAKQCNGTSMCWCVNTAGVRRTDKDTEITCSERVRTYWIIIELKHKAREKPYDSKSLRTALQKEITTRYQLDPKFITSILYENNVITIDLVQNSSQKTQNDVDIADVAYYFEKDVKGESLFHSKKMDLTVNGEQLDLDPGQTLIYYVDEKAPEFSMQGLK

hCMET-Fc = biological target: T2, hCMET-Fc (The natural ectodomain is cleaved by furin after residue 307 into disulfide-linked alpha and beta chains. It is given here as one continuous stretch.)
T2 construct: member of the panel m9
T2 chain: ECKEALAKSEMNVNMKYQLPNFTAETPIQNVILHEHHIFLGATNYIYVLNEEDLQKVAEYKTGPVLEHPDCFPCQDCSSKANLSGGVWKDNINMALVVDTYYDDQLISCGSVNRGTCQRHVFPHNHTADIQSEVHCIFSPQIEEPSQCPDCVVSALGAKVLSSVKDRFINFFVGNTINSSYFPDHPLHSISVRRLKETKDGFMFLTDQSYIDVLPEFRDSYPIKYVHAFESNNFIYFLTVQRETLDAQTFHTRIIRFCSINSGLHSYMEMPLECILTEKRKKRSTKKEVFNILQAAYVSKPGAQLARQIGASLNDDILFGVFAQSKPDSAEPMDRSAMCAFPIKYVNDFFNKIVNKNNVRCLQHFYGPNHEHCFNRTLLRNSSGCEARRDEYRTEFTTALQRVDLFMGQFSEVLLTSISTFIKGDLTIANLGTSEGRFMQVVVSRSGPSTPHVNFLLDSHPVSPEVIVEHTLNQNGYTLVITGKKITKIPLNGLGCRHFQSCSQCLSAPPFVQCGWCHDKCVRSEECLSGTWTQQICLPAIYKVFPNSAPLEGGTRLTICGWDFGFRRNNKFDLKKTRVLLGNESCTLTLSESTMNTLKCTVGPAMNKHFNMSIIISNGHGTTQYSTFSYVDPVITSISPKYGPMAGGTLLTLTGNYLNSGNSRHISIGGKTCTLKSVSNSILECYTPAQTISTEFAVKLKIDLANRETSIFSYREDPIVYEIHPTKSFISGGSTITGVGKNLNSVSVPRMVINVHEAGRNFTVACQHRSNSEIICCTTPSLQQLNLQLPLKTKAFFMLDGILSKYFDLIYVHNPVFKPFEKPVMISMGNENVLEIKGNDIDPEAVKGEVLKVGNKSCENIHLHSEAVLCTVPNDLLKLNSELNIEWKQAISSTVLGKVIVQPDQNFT

hDR3-Fc = biological target: T3, hDR3-Fc (human, UniProt Q93038)
T3 construct: Fc fusion; member of the panel m9
T3 sequence (looked up): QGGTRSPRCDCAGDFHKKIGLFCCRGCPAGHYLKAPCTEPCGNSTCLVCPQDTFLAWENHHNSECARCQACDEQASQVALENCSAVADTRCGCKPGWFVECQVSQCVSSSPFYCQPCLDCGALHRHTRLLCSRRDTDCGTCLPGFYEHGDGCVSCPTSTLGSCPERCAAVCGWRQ

hTWEAK-Fc = biological target: T4, hTWEAK-Fc (human, UniProt O43508)
T4 construct: Fc fusion; member of the panel m9
T4 sequence (looked up): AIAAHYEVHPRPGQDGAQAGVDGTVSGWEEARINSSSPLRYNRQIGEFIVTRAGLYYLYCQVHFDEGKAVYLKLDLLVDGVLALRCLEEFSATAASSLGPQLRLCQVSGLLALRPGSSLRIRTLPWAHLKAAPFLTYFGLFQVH

hDR6-Fc = biological target: T5, hDR6-Fc (human, UniProt O75509)
T5 construct: Fc fusion; member of the panel m9
T5 sequence (looked up): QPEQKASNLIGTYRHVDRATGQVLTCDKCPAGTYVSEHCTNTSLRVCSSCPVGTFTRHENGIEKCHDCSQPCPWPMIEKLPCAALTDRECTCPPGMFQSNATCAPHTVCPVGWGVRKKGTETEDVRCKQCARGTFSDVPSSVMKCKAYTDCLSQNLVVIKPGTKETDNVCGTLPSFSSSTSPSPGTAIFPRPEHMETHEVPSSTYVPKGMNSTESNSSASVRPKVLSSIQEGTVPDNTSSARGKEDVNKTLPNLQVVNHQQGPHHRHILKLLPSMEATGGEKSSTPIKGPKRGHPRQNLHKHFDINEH

hVCAM-Fc = biological target: T6, hVCAM-Fc
T6 construct: member of the panel m9
T6 chain: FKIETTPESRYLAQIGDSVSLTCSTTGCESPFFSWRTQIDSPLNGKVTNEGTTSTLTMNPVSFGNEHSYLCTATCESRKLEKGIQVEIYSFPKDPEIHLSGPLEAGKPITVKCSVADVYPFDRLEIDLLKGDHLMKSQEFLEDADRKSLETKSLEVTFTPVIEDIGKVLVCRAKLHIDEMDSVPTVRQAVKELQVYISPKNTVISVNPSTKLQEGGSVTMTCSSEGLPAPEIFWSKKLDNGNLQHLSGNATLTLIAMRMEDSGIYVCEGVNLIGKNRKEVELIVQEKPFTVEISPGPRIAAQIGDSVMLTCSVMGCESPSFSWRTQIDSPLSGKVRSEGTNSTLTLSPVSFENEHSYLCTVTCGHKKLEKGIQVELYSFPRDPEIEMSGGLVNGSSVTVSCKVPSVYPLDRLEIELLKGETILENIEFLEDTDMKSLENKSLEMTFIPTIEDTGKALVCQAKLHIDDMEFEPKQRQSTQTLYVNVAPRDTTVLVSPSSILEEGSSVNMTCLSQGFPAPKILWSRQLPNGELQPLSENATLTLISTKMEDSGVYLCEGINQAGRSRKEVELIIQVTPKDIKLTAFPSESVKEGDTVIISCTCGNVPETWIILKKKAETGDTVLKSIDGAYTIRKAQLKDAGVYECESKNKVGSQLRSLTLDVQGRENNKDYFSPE

hLTBR-Fc = biological target: T7, hLTBR-Fc (human, UniProt P36941)
T7 construct: Fc fusion; member of the panel m9
T7 sequence (P36941 28-227 limits assumed): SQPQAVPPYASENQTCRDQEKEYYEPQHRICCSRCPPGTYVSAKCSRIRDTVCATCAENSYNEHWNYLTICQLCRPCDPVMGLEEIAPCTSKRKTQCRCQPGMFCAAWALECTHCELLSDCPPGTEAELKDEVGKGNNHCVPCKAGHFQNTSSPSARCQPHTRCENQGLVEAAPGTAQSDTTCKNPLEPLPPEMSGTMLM

hICAM-1-Fc = biological target: T8, hICAM-1-Fc (human, UniProt P05362)
T8 construct: Fc fusion; member of the panel m9
T8 sequence (P05362 28-480 limits assumed): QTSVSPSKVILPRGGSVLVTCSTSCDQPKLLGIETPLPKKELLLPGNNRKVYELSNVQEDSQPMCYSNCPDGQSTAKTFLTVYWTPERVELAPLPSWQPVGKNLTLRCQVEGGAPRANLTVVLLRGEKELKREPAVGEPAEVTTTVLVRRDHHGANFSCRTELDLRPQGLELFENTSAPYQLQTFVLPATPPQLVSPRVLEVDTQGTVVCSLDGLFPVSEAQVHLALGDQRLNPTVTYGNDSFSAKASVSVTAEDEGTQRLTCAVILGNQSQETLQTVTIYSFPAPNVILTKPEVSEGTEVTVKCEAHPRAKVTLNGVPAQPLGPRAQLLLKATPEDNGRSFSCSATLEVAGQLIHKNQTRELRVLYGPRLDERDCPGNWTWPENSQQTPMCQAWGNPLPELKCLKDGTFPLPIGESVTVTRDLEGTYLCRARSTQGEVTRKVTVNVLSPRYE

hBAFFR-Fc = biological target: T9, hBAFFR-Fc (human, UniProt Q96RJ3)
T9 construct: Fc fusion; member of the panel m9
T9 sequence (Q96RJ3 7-71 limits assumed): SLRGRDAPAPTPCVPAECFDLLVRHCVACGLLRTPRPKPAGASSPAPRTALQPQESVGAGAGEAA

Measured: binding result

B1: MH5.22 (antibody, IgG1, V domains shown)
VH: QVQLVQSGAEVKKPGASVKVSCKASGYTFTDFYMNWVRQAPGQGLEWMGRIYPASGNTYYAQKFQGRVTMTRDTSTSTVYMELSSLRSEDTAVYYCARGVWYYDYWGQGTLVTVSS
VL: DIQMTQSPSSLSASVGDRVTITCRASQGIRTNLAWFQQKPGKAPKSLIYAASSLQSGVPSRFSGSGSGTDFTLTISSLQPEDFATYYCQQYANYPRTFGGGTKVEIK
notes: IgG1; also called C-KIT-MH5.22
no binding (tested: 1 µg/ml): hEpCAM-Fc | hCMET-Fc | hDR3-Fc | hTWEAK-Fc | hDR6-Fc | hVCAM-Fc | hLTBR-Fc | hICAM-1-Fc | hBAFFR-Fc

Reference: patent publication US20200283521A1 (GRANULAR THERAPEUTICS, published 2020)
